Laboratory results published in publication PMC8168397.

Experiments:
Test in all cases: SPR
[1] = biological target: Syrian hamster FcγRI, soluble ectodomain (Syrian hamster (Mesocricetus auratus))
[2] = biological target: Syrian hamster FcγRIII, soluble ectodomain (Syrian hamster (Mesocricetus auratus))
[3] = biological target: Syrian hamster FcγRIIb, soluble ectodomain (Syrian hamster (Mesocricetus auratus))
[4] = biological target: Syrian hamster FcγRIV, soluble ectodomain (Syrian hamster (Mesocricetus auratus))

In the case of Hamster IgG1, the Kd [1] is reported as greater than 1 µM, the Kd [2] is reported as 0.0355 µM and the Kd [3] is reported as 0.0562 µM. It also gave a Kd [4] greater than 1 µM.

Hamster IgG2a was tested, and the Kd [1] was 0.496 µM, the Kd [2] was 0.702 µM and the Kd [3] was 1.03 µM. It also gave a Kd [4] of 0.0171 µM.

Mouse IgG1 gave a Kd [1] greater than 1 µM, a Kd [2] of 0.0781 µM and a Kd [3] of 0.143 µM. The Kd [4] was greater than 1 µM.

Work on Mouse IgG2a yielded a Kd [1] of 0.338 µM, a Kd [2] of 0.572 µM and a Kd [3] of 1.14 µM. It also gave a Kd [4] of 0.0147 µM.

“human IgG1 Fc domain variant GAALIE (from UniProt P01857)” showed a Kd [1] greater than 1 µM, a Kd [2] of 0.233 µM and a Kd [3] of 0.328 µM. The Kd [4] was 0.00952 µM.

Work on “human IgG1 Fc domain variant V11 (from UniProt P01857)” yielded a Kd [1] greater than 1 µM, a Kd [2] of 0.26 µM and a Kd [3] of 0.345 µM. The Kd [4] was greater than 1 µM.

“wild-type human IgG1 (from UniProt P01857)” gave a Kd [1] of 0.737 µM, a Kd [2] greater than 1 µM and a Kd [3] greater than 1 µM. For the same substance, the Kd [4] was 0.102 µM.
